From publication PMC3580838

How the values were obtained:
GST:CcmC(W^5A/D126A) = GST:CcmC(W^5A/D126A) (UniProt P0ABM1); assay: pull-down
GST:CcmC(H60A/H184A) = GST:CcmC(H60A/H184A) (UniProt P0ABM1); assay: pull-down

% CcmE bound with heme (GST:CcmC(W^5A/D126A)): < 4%
% holoCcmE bound with heme (GST:CcmC(W^5A/D126A)): < 3%
% CcmE bound with heme (GST:CcmC(H60A/H184A)): < 4%
% holoCcmE bound with heme (GST:CcmC(H60A/H184A)): < 3%
Substance: CcmE (from UniProt P69490 30-159) (natural protein)
